What is called Kd is the free concentration of one partner at which half of the binding sites on the other are occupied at equilibrium, for simple one-to-one binding.

This assay deals with His-LHP1 (recombinant Prunus mume Like Heterochromatin Protein 1) (Prunus mume (Japanese apricot)). Briefly: SPR; BIAcore X-100; PmLHP1 immobilized on a CM5 sensor chip by amine coupling; target protein diluted in a gradient; steady-state affinity model. On the technique in general: Surface plasmon resonance follows binding to a sensor surface in real time, without labels.

For the substance “Gst-AGL24 (recombinant Prunus mume AGAMOUS-like 24) (natural protein)”, the dissociation constant Kd came out at 20.6 µM.
